FireProtDB (doi:10.1016/0022-2836(92)90906-z)

B1: Ribonuclease, P00648 (parent)
chain: MMKMEGIALKKRLSWISVCLLVLVSAAGMLFSTAAKTETSSHKAHTEAQVINTFDGVADYLQTYHKLPDNYITKSEAQALGWVASKGNLADVAPGKSIGGDIFSNREGKLPGKSGRTWREADINYTSGFRNSDRILYSSDWLIYKTTDHYQTFTKIR

Variants of: B1
Details: Bacillus amyloliquefaciens; pH 6.3; 25 °C; Urea; Fluorescence; MES 1.00 M; NaCl 613 mM; reversible: yes; structure 1BNI; whole UniProt chain shown

For D55S, the “ddG of mutation (higher = less stable)” value was 0.7 kcal/mol, the denaturant m value was 1.99 kcal/mol/M and the “denaturant midpoint (higher = more stable)” value (shortened to “denaturant midpoint”) was 4.07 M. It also gave an unfolding free energy of 8.1 kcal/mol.

With D55G the “ddG of mutation (higher = less stable)” value was 1.3 kcal/mol, the denaturant m value was 1.89 kcal/mol/M and the “denaturant midpoint” value was 3.97 M. For the same variant, the unfolding free energy was 7.5 kcal/mol.

With H65S W141L the “ddG of mutation (higher = less stable)” value was 2.8 kcal/mol, the denaturant m value was 1.86 kcal/mol/M and the “denaturant midpoint” value was 3.24 M. It also gave an unfolding free energy of 6 kcal/mol.

With H65A W141L the “ddG of mutation (higher = less stable)” value was 2.3 kcal/mol, the denaturant m value was 1.94 kcal/mol/M and the “denaturant midpoint” value was 3.36 M. The unfolding free energy was 6.5 kcal/mol.

With H65R W141L the “ddG of mutation (higher = less stable)” value was 1.6 kcal/mol, the denaturant m value was 2.06 kcal/mol/M and the “denaturant midpoint” value was 3.48 M. For the same variant, the unfolding free energy was 7.2 kcal/mol.

In the case of T73D, the “ddG of mutation (higher = less stable)” value is reported as 0 kcal/mol, the denaturant m value is reported as 1.95 kcal/mol/M and the “denaturant midpoint” value is reported as 4.53 M. For the same variant, the unfolding free energy was 8.8 kcal/mol.

In the case of Y64G, the “ddG of mutation (higher = less stable)” value is reported as 4 kcal/mol, the denaturant m value is reported as 1.91 kcal/mol/M and the “denaturant midpoint” value is reported as 2.5 M. For the same variant, the unfolding free energy was 4.8 kcal/mol.

For Y64S, the “ddG of mutation (higher = less stable)” value was 2 kcal/mol, the denaturant m value was 2.08 kcal/mol/M and the “denaturant midpoint” value was 3.25 M. It also gave an unfolding free energy of 6.8 kcal/mol.

With S75G the “ddG of mutation (higher = less stable)” value was 0.5 kcal/mol, the denaturant m value was 1.88 kcal/mol/M and the “denaturant midpoint” value was 4.34 M. It also gave an unfolding free energy of 8.3 kcal/mol.

With S75A the “ddG of mutation (higher = less stable)” value was -0.6 kcal/mol, the denaturant m value was 1.98 kcal/mol/M and the “denaturant midpoint” value was 4.78 M. The unfolding free energy was 9.4 kcal/mol.

For Q78S, the “ddG of mutation (higher = less stable)” value was -0.3 kcal/mol, the denaturant m value was 2.05 kcal/mol/M and the “denaturant midpoint” value was 4.44 M. For the same variant, the unfolding free energy was 9.1 kcal/mol.

For Q78A, the “ddG of mutation (higher = less stable)” value was 0.3 kcal/mol, the denaturant m value was 1.83 kcal/mol/M and the “denaturant midpoint” value was 4.62 M. For the same variant, the unfolding free energy was 8.5 kcal/mol.

In the case of Q78G, the “ddG of mutation (higher = less stable)” value is reported as 1.1 kcal/mol, the denaturant m value is reported as 1.89 kcal/mol/M and the “denaturant midpoint” value is reported as 4.07 M. It also gave an unfolding free energy of 7.7 kcal/mol.

For H65G, the “ddG of mutation (higher = less stable)” value was 0.7 kcal/mol, the denaturant m value was 1.91 kcal/mol/M and the “denaturant midpoint” value was 4.21 M. For the same variant, the unfolding free energy was 8.1 kcal/mol.

In the case of H65D, the “ddG of mutation (higher = less stable)” value is reported as 2.2 kcal/mol, the denaturant m value is reported as 2.04 kcal/mol/M and the “denaturant midpoint” value is reported as 3.26 M. It also gave an unfolding free energy of 6.6 kcal/mol.

With H65N the “ddG of mutation (higher = less stable)” value was 1.8 kcal/mol, the denaturant m value was 1.89 kcal/mol/M and the “denaturant midpoint” value was 3.71 M. For the same variant, the unfolding free energy was 7 kcal/mol.

With H65A the “ddG of mutation (higher = less stable)” value was 1.9 kcal/mol, the denaturant m value was 1.91 kcal/mol/M and the “denaturant midpoint” value was 3.62 M. It also gave an unfolding free energy of 6.9 kcal/mol.

With H65R the “ddG of mutation (higher = less stable)” value was 1 kcal/mol, the denaturant m value was 1.97 kcal/mol/M and the “denaturant midpoint” value was 3.97 M. For the same variant, the unfolding free energy was 7.8 kcal/mol.

In the case of H65S, the “ddG of mutation (higher = less stable)” value is reported as 2.1 kcal/mol, the denaturant m value is reported as 1.96 kcal/mol/M and the “denaturant midpoint” value is reported as 3.4 M. It also gave an unfolding free energy of 6.7 kcal/mol.

In the case of H65K, the “ddG of mutation (higher = less stable)” value is reported as 0.9 kcal/mol, the denaturant m value is reported as 1.99 kcal/mol/M and the “denaturant midpoint” value is reported as 3.96 M. For the same variant, the unfolding free energy was 7.9 kcal/mol.

For T53P, the “ddG of mutation (higher = less stable)” value was 3.3 kcal/mol, the denaturant m value was 1.83 kcal/mol/M and the “denaturant midpoint” value was 2.99 M. The unfolding free energy was 5.5 kcal/mol.

In the case of E76S, the “ddG of mutation (higher = less stable)” value is reported as 1.2 kcal/mol, the denaturant m value is reported as 1.93 kcal/mol/M and the “denaturant midpoint” value is reported as 3.94 M. The unfolding free energy was 7.6 kcal/mol.

With E76A the “ddG of mutation (higher = less stable)” value was 1.2 kcal/mol, the denaturant m value was 1.94 kcal/mol/M and the “denaturant midpoint” value was 3.93 M. For the same variant, the unfolding free energy was 7.6 kcal/mol.

In the case of E76G, the “ddG of mutation (higher = less stable)” value is reported as 2.2 kcal/mol, the denaturant m value is reported as 1.81 kcal/mol/M and the “denaturant midpoint” value is reported as 3.64 M. It also gave an unfolding free energy of 6.6 kcal/mol.

In the case of H65K W141L, the “ddG of mutation (higher = less stable)” value is reported as 2.7 kcal/mol, the denaturant m value is reported as 1.8 kcal/mol/M and the “denaturant midpoint” value is reported as 3.37 M. For the same variant, the unfolding free energy was 6.1 kcal/mol.

In the case of K74G, the “ddG of mutation (higher = less stable)” value is reported as -0.2 kcal/mol, the denaturant m value is reported as 2.11 kcal/mol/M and the “denaturant midpoint” value is reported as 4.29 M. The unfolding free energy was 9 kcal/mol.

With G81A the “ddG of mutation (higher = less stable)” value was 2.7 kcal/mol, the denaturant m value was 2.06 kcal/mol/M and the “denaturant midpoint” value was 2.97 M. For the same variant, the unfolding free energy was 6.1 kcal/mol.

For G81H, the “ddG of mutation (higher = less stable)” value was 2.3 kcal/mol, the denaturant m value was 2.02 kcal/mol/M and the “denaturant midpoint” value was 3.21 M. For the same variant, the unfolding free energy was 6.5 kcal/mol.

With G81N the “ddG of mutation (higher = less stable)” value was 2.7 kcal/mol, the denaturant m value was 1.94 kcal/mol/M and the “denaturant midpoint” value was 3.16 M. For the same variant, the unfolding free energy was 6.1 kcal/mol.

In the case of G81D, the “ddG of mutation (higher = less stable)” value is reported as 3.2 kcal/mol, the denaturant m value is reported as 1.99 kcal/mol/M and the “denaturant midpoint” value is reported as 2.83 M. For the same variant, the unfolding free energy was 5.6 kcal/mol.

With G81S the “ddG of mutation (higher = less stable)” value was 2.9 kcal/mol, the denaturant m value was 2.03 kcal/mol/M and the “denaturant midpoint” value was 2.93 M. For the same variant, the unfolding free energy was 5.9 kcal/mol.

For G81T, the “ddG of mutation (higher = less stable)” value was 3.2 kcal/mol, the denaturant m value was 1.96 kcal/mol/M and the “denaturant midpoint” value was 2.84 M. The unfolding free energy was 5.6 kcal/mol.

With G81K the “ddG of mutation (higher = less stable)” value was 2.7 kcal/mol, the denaturant m value was 2.06 kcal/mol/M and the “denaturant midpoint” value was 2.97 M. For the same variant, the unfolding free energy was 6.1 kcal/mol.

With D59S the “ddG of mutation (higher = less stable)” value was 0.9 kcal/mol, the denaturant m value was 1.85 kcal/mol/M and the “denaturant midpoint” value was 4.29 M. It also gave an unfolding free energy of 7.9 kcal/mol.

For D59G, the “ddG of mutation (higher = less stable)” value was 0.2 kcal/mol, the denaturant m value was 1.87 kcal/mol/M and the “denaturant midpoint” value was 3.97 M. The unfolding free energy was 8.6 kcal/mol.

With T63A the “ddG of mutation (higher = less stable)” value was 0.5 kcal/mol, the denaturant m value was 1.88 kcal/mol/M and the “denaturant midpoint” value was 4.43 M. The unfolding free energy was 8.3 kcal/mol.
